Three proteins from paper doi:10.1101/2020.08.13.232140, “Assembly and symmetry of the fungal E3BP-containing core of the Pyruvate Dehydrogenase Complex” (bioRxiv, 2020) can be followed below.

Data set [1] concerns the molecule itself. Kind of data set: cryo-EM structure; native PDC purified from N. crassa mitochondria; single-particle reconstructions under icosahedral and tetrahedral symmetry (classes X, Y, N).
Data set [2] deals with the molecule itself. Kind of data set: cryo-EM structure; reconstituted tE2+PX30 subcomplex of separately expressed components; icosahedral (map R1) and tetrahedral (maps R2X/Y) reconstructions.
Data set [3] deals with the molecule itself. The data set can be described thus: cryo-EM structure; co-expressed tE2/PX261 subcomplex; reconstruction under icosahedral symmetry.

B1: E2 of the native N. crassa pyruvate dehydrogenase complex (PDC core) (natural protein, UniProt P20285 29-458, looked up)
chain: ASYPPHTVVKMPALSPTMTSGGIGAWQKKPGDKIEPGEVLVEIETDKAQMDFEFQEEGVLAKILKDSGEKDVAVGNPIAILVEEGTDVNAFKDFTLKDAGGETSPAVPKDEPKNESTASAPTPAPTPAPEPENTSFTGRFQTALEREPNALPAAKRLAREKGIDLRNVKGSGPGGKITEEDVKKALASAPAAGAAAAAYTDVPISGMRKTIAARLKESVTENPHFFVSTNLSVSKLLKLRQALNSSADGRYKLSVNDFLIKAMGIASKRVPTVNSSWRDGVIRQFETVDVSVAVATPNGLITPIVKGVEGKGLESISAAVKELAKKARDGKLKPEEYQGGSISISNMGMNPAVQSFTAIINPPQAAILAVGAPQKVAVPVENEDGTTGVSWDEQIIVTASFDHKVVDGAVGAEWIRELKKVIENPLELLL
notes: E2 (acetyltransferase) component of the pyruvate dehydrogenase complex, Neurospora crassa, UniProt P20285; residues 232-458 identified in the native reconstruction; the recombinant E2 construct starts at residue 29; Strain WT STA74 / ATCC 14692; also called E2 core; source: endogenous, PDC purified from N. crassa mitochondria (sucrose cushion, sucrose gradient, SEC); copies: 60
The term stoichiometry N denotes the number of molecules, sites or subunits per partner or assembly. As to B1, in data set [1], the “stoichiometry N” value came to 60.

B2: N. crassa E2 core-forming domain (tE2), separately expressed (domain or fragment, UniProt P20285 225-458, looked up)
chain: AAYTDVPISGMRKTIAARLKESVTENPHFFVSTNLSVSKLLKLRQALNSSADGRYKLSVNDFLIKAMGIASKRVPTVNSSWRDGVIRQFETVDVSVAVATPNGLITPIVKGVEGKGLESISAAVKELAKKARDGKLKPEEYQGGSISISNMGMNPAVQSFTAIINPPQAAILAVGAPQKVAVPVENEDGTTGVSWDEQIIVTASFDHKVVDGAVGAEWIRELKKVIENPLELLL
notes: E2 of the pyruvate dehydrogenase complex, Neurospora crassa, residues 225-458 of UniProt P20285 (core-forming catalytic domain); model built for 227-458; pRSET vector; the His6-tag is cleavable with thrombin; Icosahedral assembly; source: E. coli Rosetta2 (DE3), single expression
B2: the binding result in data set [2] is given as “binds”.

B3: untagged N. crassa E2 core-forming domain (tE2), co-expressed with PX constructs (domain or fragment, UniProt P20285 225-458, looked up)
chain: B2 chain
notes: E2 of the pyruvate dehydrogenase complex, Neurospora crassa, residues 225-458 of UniProt P20285 (core-forming catalytic domain); petDuet dual-expression vectors were built with the single-expression genes as template; PX stood in the His-tagged MCS1, tE2 untagged; also called untagged E2 core-forming domain; PDC core; source: E. coli Rosetta2 (DE3), co-expressed with His-tagged PX from petDuet, …
On to B3, for which the binding result in data set [3] is given as “binds”.
